Measured values taken from doi:10.1101/2024.12.17.628889.

Biological target: wild-type PERK BiFC construct (pEZY BiFC pre-NV(CV)-PERK) (human) (UniProt Q9NZJ5)
Test: split reporter

UniProt Q9NZJ5, sequence (Q9NZJ5 30-1116): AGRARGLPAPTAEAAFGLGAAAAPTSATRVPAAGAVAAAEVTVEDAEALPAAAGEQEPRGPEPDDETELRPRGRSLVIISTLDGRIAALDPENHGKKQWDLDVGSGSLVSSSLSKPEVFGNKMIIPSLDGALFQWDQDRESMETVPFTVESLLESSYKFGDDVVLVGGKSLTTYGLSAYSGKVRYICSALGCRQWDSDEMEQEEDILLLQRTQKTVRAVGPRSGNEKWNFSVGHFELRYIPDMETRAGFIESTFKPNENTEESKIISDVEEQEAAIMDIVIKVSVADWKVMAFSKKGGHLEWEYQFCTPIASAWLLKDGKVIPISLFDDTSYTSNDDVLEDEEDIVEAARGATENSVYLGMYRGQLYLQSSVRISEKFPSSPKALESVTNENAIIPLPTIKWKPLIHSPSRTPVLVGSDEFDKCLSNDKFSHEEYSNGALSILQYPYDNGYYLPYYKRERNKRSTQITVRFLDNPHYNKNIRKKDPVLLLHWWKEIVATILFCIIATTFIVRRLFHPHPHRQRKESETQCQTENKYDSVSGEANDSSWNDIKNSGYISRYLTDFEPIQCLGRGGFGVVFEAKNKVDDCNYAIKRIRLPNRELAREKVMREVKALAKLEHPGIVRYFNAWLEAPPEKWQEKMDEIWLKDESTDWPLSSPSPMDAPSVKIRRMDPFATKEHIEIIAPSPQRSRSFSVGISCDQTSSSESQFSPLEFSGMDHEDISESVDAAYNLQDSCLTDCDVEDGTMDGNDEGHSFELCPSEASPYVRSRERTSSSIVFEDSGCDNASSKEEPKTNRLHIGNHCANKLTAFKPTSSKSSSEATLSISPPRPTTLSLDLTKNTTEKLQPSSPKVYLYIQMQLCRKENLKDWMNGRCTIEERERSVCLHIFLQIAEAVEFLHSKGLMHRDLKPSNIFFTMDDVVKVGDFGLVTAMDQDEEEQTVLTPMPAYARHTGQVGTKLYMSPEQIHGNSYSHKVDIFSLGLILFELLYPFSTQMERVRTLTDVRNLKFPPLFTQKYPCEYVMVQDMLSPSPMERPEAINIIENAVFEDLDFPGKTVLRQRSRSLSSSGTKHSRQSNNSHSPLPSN

Substance | BiFC fluorescence intensity relative to the CDNF-IRE1α interaction | BiFC fluorescent signal relative to wt CDNF and the other mutants
CDNF BiFC construct (pEZY BiFC pre-CDNF-NV(CV)) (from UniProt Q49AH0 25-187) (natural protein) | 7 times higher | 
CDNF K122A BiFC construct (natural protein) |  | 5 times lower
